B2: Listeria innocua RsbS (LiRsbS) (natural protein)
chain: MGIPILKLGECLLISIQSELDDHTAVEFQEDLLAKIHETSARGVVIDITSIDFIDSFIAKILGDVVSMSKLMGAKVVVTGIQPAVAITLIELGITFSGVLSAMDLESGLEKLKQELGE
notes: RsbS of Listeria innocua, gene CAC96121.1; single STAS domain protein; Ser56 not phosphorylated in the structure; source: E. coli BL21 Star (DE3), co-expressed with LiRsbR from pET11a, co-purified (DEAE, Resource Q, Superose 6 Increase SEC)

Legend:
[1] = molecular target: B2; assay: cryo-EM structure; co-expressed and co-purified LiRsbRS complex (monomeric form after SEC), 0.6 mg/mL; C1 map 4.2 Å, D2 map 3.87 Å, icosahedral map 3.45 Å; model built in the D2 map; conditions: both partners purified
[2] = molecular target: the molecule itself; assay: as above

B1: Listeria innocua RsbR (LiRsbR) (natural protein)
chain: MYKDFANFIRTNKKDLLNNWMNEMEKQSDPLINDIAKEPMYEETSIEFVDLIVSNITENGSKFNEKLDDFAEKVVHLGWPIHFVTTGLRVFGLLVYTAMRDEDLFLKREEKPEDDAYYRFETWLSSMYNKVVTAYADTWEKTVSIQKSALQELSAPLLPIFEKISVMPLIGTIDTERAKLIIENLLIGVVKNRSEVVLIDITGVPVVDTMVAHHIIQASEAVRLVGCQAMLVGIRPEIAQTIVNLGIELDQIITTNTMKKGMERALALTNREIVEKEG
modifications: phosphothreonine at 241 (by ESI-MS-MS and cryo-EM density; seen only in RsbR protomers interacting with RsbS); Thr175 and Thr209 not phosphorylated
notes: RsbR of Listeria innocua, gene CAC96120.1; N-terminal sensory domain, linker helix and C-terminal STAS domain; also called RsbR1; source: E. coli BL21 Star (DE3), co-expressed with LiRsbS from pET11a, co-purified (DEAE, Resource Q, Superose 6 Increase SEC)
In the case of B1, the “stoichiometry N” value [1] is reported as 2 LiRsbR per LiRsbS and the binding result [2] is reported as “binds”.

B2: binds [2].
